Experimental data taken from article PMC9636422, “AZIN1 RNA editing alters protein interactions, leading to nuclear translocation and worse outcomes in prostate cancer” (Experimental & Molecular Medicine, 2022).

How the values were obtained:
Experiment in all cases: FRET or BRET; AZ-mRuby2 titrated (100 pM-1 µM) to a fixed concentration of Clover-AZIN1 variants (50 nM); TBS pH 7.4 + 0.15% Tween-20; equilibrated at room temp for 1 h; donor quenching fitted
Details in all cases: both partners purified
[1] = molecular target: T1, Clover-AZIN1 S367N mutant, recombinant fusion protein (human, UniProt O14977 1-448, S367N)
T1 construct: source: E. coli (pBAD vector), purified recombinant; not shown: Clover, N-terminal, kept
T1 sequence (looked up): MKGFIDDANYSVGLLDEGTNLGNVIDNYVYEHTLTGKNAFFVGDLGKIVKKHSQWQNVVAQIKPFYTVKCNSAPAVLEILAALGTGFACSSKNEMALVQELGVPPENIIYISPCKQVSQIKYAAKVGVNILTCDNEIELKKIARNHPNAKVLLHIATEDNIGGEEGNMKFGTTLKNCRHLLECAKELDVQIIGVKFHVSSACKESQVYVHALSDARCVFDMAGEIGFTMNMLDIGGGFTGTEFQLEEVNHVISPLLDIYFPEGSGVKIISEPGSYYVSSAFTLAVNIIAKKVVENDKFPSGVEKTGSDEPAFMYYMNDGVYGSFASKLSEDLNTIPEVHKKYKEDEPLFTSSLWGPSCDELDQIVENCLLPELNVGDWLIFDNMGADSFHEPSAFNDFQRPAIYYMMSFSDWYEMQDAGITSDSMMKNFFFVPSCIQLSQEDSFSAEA

[2] = molecular target: T2, Clover-AZIN1 (wild type), recombinant fusion protein (human, UniProt O14977 1-448)
T2 construct: The vector encodes the 6X-HIS-tagged fluorescent protein with a TEV protease cleavage site; also called wild-type protein; hAZIN1; source: E. coli (pBAD vector), purified recombinant; not shown: Clover, N-terminal, kept
T2 sequence (looked up): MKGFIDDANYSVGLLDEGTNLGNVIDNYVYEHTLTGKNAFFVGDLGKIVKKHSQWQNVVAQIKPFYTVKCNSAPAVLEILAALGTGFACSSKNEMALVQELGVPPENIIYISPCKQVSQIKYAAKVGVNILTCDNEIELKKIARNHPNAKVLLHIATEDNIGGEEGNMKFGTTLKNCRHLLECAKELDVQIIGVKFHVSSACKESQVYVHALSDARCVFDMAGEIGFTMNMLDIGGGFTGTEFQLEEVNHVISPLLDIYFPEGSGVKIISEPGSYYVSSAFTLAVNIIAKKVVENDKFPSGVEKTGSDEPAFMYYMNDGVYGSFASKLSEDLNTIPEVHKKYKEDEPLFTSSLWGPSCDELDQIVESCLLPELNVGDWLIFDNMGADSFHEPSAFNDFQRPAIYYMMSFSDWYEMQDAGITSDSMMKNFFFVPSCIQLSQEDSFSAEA

[3] = molecular target: T3, Clover-AZIN1 S367G (edited AZIN1), recombinant fusion protein (human, UniProt O14977 1-448, S367G)
T3 construct: Point mutation introduced by PCR-based site-directed mutagenesis; source: E. coli (pBAD vector), purified recombinant; not shown: Clover, N-terminal, kept
T3 sequence (looked up): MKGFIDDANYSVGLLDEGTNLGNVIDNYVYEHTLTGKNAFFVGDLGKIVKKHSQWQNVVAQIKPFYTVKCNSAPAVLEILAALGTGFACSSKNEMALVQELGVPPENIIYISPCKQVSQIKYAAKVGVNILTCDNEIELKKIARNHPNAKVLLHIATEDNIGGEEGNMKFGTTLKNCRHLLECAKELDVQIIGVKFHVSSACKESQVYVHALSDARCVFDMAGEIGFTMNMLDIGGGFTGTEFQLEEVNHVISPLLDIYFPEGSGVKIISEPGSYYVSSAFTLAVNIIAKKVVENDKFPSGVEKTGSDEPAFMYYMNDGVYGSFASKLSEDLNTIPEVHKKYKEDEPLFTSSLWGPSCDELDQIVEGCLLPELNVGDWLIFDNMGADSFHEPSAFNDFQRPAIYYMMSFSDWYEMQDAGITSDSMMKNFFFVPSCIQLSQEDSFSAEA

[4] = molecular target: T4, Clover-AZIN1 S367A mutant, recombinant fusion protein (human, UniProt O14977 1-448, S367A)
T4 construct: source: E. coli (pBAD vector), purified recombinant; not shown: Clover, N-terminal, kept
T4 sequence (looked up): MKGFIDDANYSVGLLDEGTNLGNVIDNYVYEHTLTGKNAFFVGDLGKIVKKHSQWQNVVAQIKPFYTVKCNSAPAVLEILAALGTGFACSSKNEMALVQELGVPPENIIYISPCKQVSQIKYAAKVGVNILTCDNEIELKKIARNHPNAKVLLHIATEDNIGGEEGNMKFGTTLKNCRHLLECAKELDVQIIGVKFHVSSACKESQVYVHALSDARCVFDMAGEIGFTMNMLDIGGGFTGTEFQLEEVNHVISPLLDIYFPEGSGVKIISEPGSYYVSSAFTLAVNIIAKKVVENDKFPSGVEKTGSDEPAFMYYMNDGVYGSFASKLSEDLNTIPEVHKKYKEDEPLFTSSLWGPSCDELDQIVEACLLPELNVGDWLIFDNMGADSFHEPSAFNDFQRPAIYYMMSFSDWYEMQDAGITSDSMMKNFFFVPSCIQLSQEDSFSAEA

Kd [1]: 40 nM | Kd [2]: 22 nM | Kd [3]: 57 nM | Kd [4]: 39 nM
B1: antizyme-mRuby2 (AZ-mRuby2), recombinant fusion protein (natural protein)
chain: not shown
notes: antizyme (human OAZ1 gene, codon optimised for E. coli and synthesised de novo); also called hOAZ1; source: E. coli (pBAD vector, codon-optimised gene), purified recombinant
